Data on 40 molecules can be found in US20200325187A1 (Genentech, published 2020).

The IC50 is the concentration that inhibits the measured activity by half. Low readings indicate greater potency, high ones weaker potency.

First the molecules themselves.
T1: hVEGF-A (8-109) (human, UniProt P15692 214-315)
T1 sequence (looked up): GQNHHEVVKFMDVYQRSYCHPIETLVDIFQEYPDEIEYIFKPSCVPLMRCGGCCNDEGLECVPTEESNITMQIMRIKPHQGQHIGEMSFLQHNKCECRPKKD

The first assay addresses T2, hVEGF-A (human, UniProt P15692-4 27-191, limits assumed).
T2 construct: also called human VEGF-A; WT
In words: phage competition ELISA, soluble CKP.
The molecule GCDPMQPFWGCKQDSDCLAGCVCRWYQSCG (designed binder) [VEGF_CKP9.59] showed a concentration for half-maximal inhibition (IC50) of 5820 nM.

On to GCNLMLPFWGCKQDSDCLAGCVCRWYHSCG (designed binder) [VEGF_CKP9.20], for which the IC50 worked out at 1340 nM.

GCKLFEPLWGCKQDSDCLAGCVCRWYESCG (designed binder) [VEGF_CKP9.96]: the half-maximal inhibitory concentration (IC50) was 49000 nM.

The molecule GCQISQPFWGCKQDSDCLAGCVCHFYNSCG (designed binder) [VEGF_CKP9.3] returned an IC50 of 1500 nM. This IC50 is about 33-fold lower than that of the molecule before.

Molecule GCDRMQPLWGCKQDSDCLAGCVCLWYKSCG (designed binder) [VEGF_CKP9.4] gave an IC50 of 1950 nM.

The target in a further assay is T1, hVEGF-A (8-109). Description: spot phage ELISA. The method, then: (§1) After four rounds of binding selection, individual phage clones were picked and inoculated into 450 μl 2YT media containing 50 µg/ml Carbenecillin and M13-KO7 helper phage in 96-well blocks, which were grown at 37° C. overnight. […] The plates were washed and bound phage was detected with anti-M13-HRP followed by TMB substrate. In these assays, phage binding to BSA alone was tested in parallel to assess background binding. […] Positive clones were subjected to DNA sequence analysis.
As for GCNPMLPLWGCKQDSDCLAGCVCHWYQSCG (designed binder) [VEGF_CKP9.L1.78], the ELISA worked out at 3 and the “S/N vs BSA” value amounted to 25.1.

As for GCQVMRPFWGCKQDSDCLAGCVCHWYQSCG (designed binder) [VEGF_CKP9.L1.7], the ELISA was 1.5 and the “S/N vs BSA” value worked out at 8.9.

GCHLFEPLWGCKQDSDCLAGCVCHWYQSCG (designed binder) [VEGF_CKP9.L1.2]: the ELISA came to 1.6 and the “S/N vs BSA” value is 12.5.

As for GCDIMQPLWGCKQDSDCLAGCVCHWYQSCG (designed binder) [VEGF_CKP9.L1.68], the ELISA amounted to 2 and the “S/N vs BSA” value was 23.2.

As for GCQVLQPSWGCKQDSDCLAGCVCHWYQSCG (designed binder) [VEGF_CKP9.L1.79], the ELISA stood at 1.2 and the “S/N vs BSA” value was 10.

On to GCNPMLPFWGCKQDSDCLAGCVCHWYQSCG (designed binder) [VEGF_CKP9.L1.57], for which the ELISA was determined as 3.7 and the “S/N vs BSA” value was found to be 31.8.

Regarding GCHRLQPLWGCKQDSDCLAGCVCHWYQSCG (designed binder) [VEGF_CKP9.L1.19], the ELISA worked out at 1.4 and the “S/N vs BSA” value came to 11.6.

In the case of GCQVMQPAWGCKQDSDCLAGCVCHWYQSCG (designed binder) [VEGF_CKP9.L1.8], the ELISA was 1.2 and the “S/N vs BSA” value was found to be 12.8.

Take GCNVLLPLWGCKQDSDCLAGCVCHWYQSCG (designed binder) [VEGF_CKP9.L1.64]: the ELISA was determined as 2.3 and the “S/N vs BSA” value was 19.9.

Regarding GCDLMQPLWGCKQDSDCLAGCVCHWYQSCG (designed binder) [VEGF_CKP9.L1.76], the ELISA came to 2.5 and the “S/N vs BSA” value came out at 17.4.

The next assay addresses T1, hVEGF-A (8-109). Description: spot phage ELISA. This is another data set of the same source. Here is the method: as §1
As for GCQLLEPMWGCKQDSDCLAGCVCHWYNSCG (designed binder) [VEGF_CKP9.9], the ELISA came to 1.1 and the “S/N vs BSA” value came out at 19.7.

For GCKLLQPMWGCKQDSDCLAGCVCRWYQSCG (designed binder) [VEGF_CKP9.14], the ELISA stood at 2 and the “S/N vs BSA” value stood at 30.1.

With GCKIMQPLWGCKQDSDCLAGCVCLWYDSCG (designed binder) [VEGF_CKP9.47], the ELISA turned out to be 1 and the “S/N vs BSA” value was found to be 14.6.

On to GCRLLEPSWGCKQDSDCLAGCVCQWYQSCG (designed binder) [VEGF_CKP9.72], for which the ELISA was 0.6 and the “S/N vs BSA” value is 10.

Regarding GCNLMHPFWGCKQDSDCLAGCVCHWYQSCG (designed binder) [VEGF_CKP9.51], the ELISA came out at 1 and the “S/N vs BSA” value is 11.

As to GCKLFEPLWGCKQDSDCLAGCVCRWYESCG (designed binder) [VEGF_CKP9.96], the ELISA is 1.2 and the “S/N vs BSA” value is 18.4.

Regarding GCALLQPLWGCKQDSDCLAGCVCRWYNSCG (designed binder) [VEGF_CKP9.69], the ELISA was determined as 1 and the “S/N vs BSA” value was 14.3.

As to GCHLLLPLWGCKQDSDCLAGCVCRWYHSCG (designed binder) [VEGF_CKP9.76], the ELISA was 1.3 and the “S/N vs BSA” value came to 15.5.

As for GCQLLQPLWGCKQDSDCLAGCVCRWYQSCG (designed binder) [VEGF_CKP9.71], the ELISA came out at 1 and the “S/N vs BSA” value was 16.5.

Regarding GCQISQPFWGCKQDSDCLAGCVCHFYNSCG (designed binder) [VEGF_CKP9.3], the ELISA was determined as 1.6 and the “S/N vs BSA” value was determined as 24.5.

In another assay the target is T2, hVEGF-A. In words: cell-based or functional assay.
CNIMLPYWGCGRDFECLAGCVCQYYQSC (designed binder) [9.54.90.F7Y.A2G] had a Cellular IC50 of 3.01 nM and an FOLD [..] [..] TO VARIANT 9.54.90 of 0.44 fold.

GCNIMLPYWGCGRDFECFYECICQYYQSCG (designed binder) [VEGF_CKP9.54.90.62.F8Y]: the Cellular IC50 was 1.14 nM and the FOLD [..] [..] TO VARIANT 9.54.90 was 1.18 fold.

Molecule GCDVMQPYWGCGPDIDCLSNCICHWYNSCG (designed binder) [VEGF_CKP9.63.12.12] showed a Cellular IC50 of 0.56 nM and an FOLD [..] [..] TO VARIANT 9.54.90 of 2.41 fold.

The molecule GCNIMLPFWGCGRDFECMQTCICQYYQSCG (designed binder) [VEGF_CKP9.54.90.25] yielded a Cellular IC50 of 1.26 nM and an FOLD [..] [..] TO VARIANT 9.54.90 of 1.07 fold.

On to GCNIMLPYWGCGRDFECMNQCICQYYQSCG (designed binder) [VEGF_CKP9.54.90.13.F8Y], for which the Cellular IC50 came out at 2.02 nM and the FOLD [..] [..] TO VARIANT 9.54.90 was determined as 0.67 fold.

Regarding GCNIMLPFWGCGRDFECFINCICQYYQSCG (designed binder) [VEGF_CKP9.54.90.44], the Cellular IC50 is 1.16 nM and the FOLD [..] [..] TO VARIANT 9.54.90 worked out at 1.16 fold.

A further assay addresses T1, hVEGF-A (8-109). Description: spot phage ELISA. The source holds these as a separate data set. Here is the method: as §1
Turning to GCDVMQPYWGCGRDMDCLAGCVCHWYNSCG (designed binder, also called L2.9.63.27) [VEGF_CKP9.63.27], the ELISA was 2.1 and the “S/N vs BSA” value was 26.

For GCDVMQPYWGCEMDFDCLAGCVCHWYNSCG (designed binder, also called L2.9.63.44) [VEGF_CKP9.63.44], the ELISA is 1.7 and the “S/N vs BSA” value came out at 19.5.

With GCNIMLPFWGCGLDYDCLAGCVCQYYQSCG (designed binder) [VEGF_CKP9.54.2], the ELISA worked out at 0.1 and the “S/N vs BSA” value was 26.

As to GCNIMLPFWGCGPDLQCLAGCVCQYYQSCG (designed binder) [VEGF_CKP9.54.59], the ELISA was determined as 2.3 and the “S/N vs BSA” value turned out to be 35.4.

Take GCDVMQPYWGCGENFLCLAGCVCHWYNSCG (designed binder, also called L2.9.63.1) [VEGF_CKP9.63.1]: the ELISA was found to be 2 and the “S/N vs BSA” value amounted to 25.2.

For the molecule GCDVMQPYWGCGESLSCLAGCVCHWYNSCG (designed binder, also called L2.9.63.69) [VEGF_CKP9.63.69], the ELISA amounted to 2.9 and the “S/N vs BSA” value turned out to be 23.7.

Another assay addresses T2, hVEGF-A. Description: KDR-VEGF competition ELISA.
The molecule GCDVMQPYWGCGRDMDCLAGCVCHWYNSCG (designed binder, also called L2.9.63.27) [VEGF_CKP9.63.27] returned a 50% inhibitory concentration (IC50) of 0.3 nM.

Consider GCDVMQPYWGCEMDFDCLAGCVCHWYNSCG (designed binder, also called L2.9.63.44) [VEGF_CKP9.63.44], for which the half-maximal inhibitory concentration (IC50) amounted to 0.2 nM.

On to GCNIMLPFWGCGLDYDCLAGCVCQYYQSCG (designed binder) [VEGF_CKP9.54.2], for which the half-inhibitory concentration (IC50) came out at 0.2 nM.

Take GCNIMLPFWGCGPDLQCLAGCVCQYYQSCG (designed binder) [VEGF_CKP9.54.59]: the IC50 stood at 0.5 nM.

GCDVMQPYWGCGENFLCLAGCVCHWYNSCG (designed binder, also called L2.9.63.1) [VEGF_CKP9.63.1] came in with an IC50 of 0.4 nM.

With GCDVMQPYWGCGESLSCLAGCVCHWYNSCG (designed binder, also called L2.9.63.69) [VEGF_CKP9.63.69], the half-inhibitory concentration (IC50) stood at 2.1 nM.

A further assay concerns the target T1, hVEGF-A (8-109). In words: phage competition ELISA (clone on phage; the concentration varied on the axis is that of hVEGF (8-109)).
As to GCDVMQPYWGCEMDFDCLAGCICHWYNSCGFS (designed binder) [9.63.44-1], the “IC50 (read off the curve)” value was about 0.04 nM.

For the molecule GCDVMQPYWGCEMDFDCLAGCICHWYNSCGPT (designed binder) [9.63.44-5], the binding result is “binds”.

As for GCDVMQPYWGCEMDFDCLAGCICHWYNSCGQV (designed binder) [9.63.44-2], the “IC50 (read off the curve)” value is about 0.03 nM.

Turning to GCDVMQPYWGCEMDFDCLAGCICHWYNSCGYA (designed binder) [9.63.44-3], the “IC50 (read off the curve)” value is about 0.03 nM.

With GCDVMQPYWGCEMDFDCLAGCICHWYNSCGSR (designed binder) [9.63.44-4], the “IC50 (read off the curve)” value was about 0.04 nM.

A further assay deals with T2, hVEGF-A. Description: cell-based or functional assay. The source holds these as a separate data set.
Turning to GCDVMQPYWGCGRDMDCLAGCVCHWYNSCG (designed binder, also called L2.9.63.27) [VEGF_CKP9.63.27], the “Cellular IC50” value amounted to 5.28 nM.

As to GCDVMQPYWGCEMDFDCLAGCVCHWYNSCG (designed binder, also called L2.9.63.44) [VEGF_CKP9.63.44], the “Cellular IC50” value was found to be 2.05 nM.

GCNIMLPFWGCGLDYDCLAGCVCQYYQSCG (designed binder) [VEGF_CKP9.54.2]: the “Cellular IC50” value worked out at 4.3 nM.

As to GCNIMLPFWGCGPDLQCLAGCVCQYYQSCG (designed binder) [VEGF_CKP9.54.59], the “Cellular IC50” value stood at 3.06 nM.

Turning to GCDVMQPYWGCGENFLCLAGCVCHWYNSCG (designed binder, also called L2.9.63.1) [VEGF_CKP9.63.1], the “Cellular IC50” value is 0.49 nM.

On to GCDVMQPYWGCGESLSCLAGCVCHWYNSCG (designed binder, also called L2.9.63.69) [VEGF_CKP9.63.69], for which the “Cellular IC50” value was determined as 26.4 nM.
